The target in one experiment is BLNK SH2 domain (human) (UniProt Q8WV28). Nature of the experiment: peptide or protein array; SH2/PTB proteins spotted on aldehyde slides, rhodamine peptide titrated in buffer B (20 mM HEPES, 100 mM KCl, 0.1% Tween-20, 5 mM DTT, pH 7.8), 1 h at room temperature; replicate assays.
The target in another experiment is GRAP2 SH2 domain (human) (UniProt O75791). The description is as above.
In another experiment the target is ITK SH2 domain (human) (UniProt Q08881). Described as above.
In experiment [1] the target is RASA1 tandem SH2 domains (human). The description is as above.
Another experiment concerns the target SRC SH2 domain (human) (UniProt P12931). Described as above.
Experiment [2] deals with SYK N-terminal SH2 domain (human). The experiment is described as above.
Experiment [3] has as its target SYK tandem SH2 domains (human). Described as above.
The target of experiment [4] is ZAP70 tandem SH2 domains (human). The experiment is described as above.
A further experiment concerns the target SLA (Homo sapiens) (UniProt Q13239). The following applies: cited from earlier work.
Experiment [5] concerns the target SRC (Homo sapiens) (UniProt P12931). The following applies: cited from earlier work.
In another experiment the target is VAV2 (Homo sapiens) (UniProt P52735). The following applies: cited from earlier work.
The target in the next experiment is SYK-C (Homo sapiens) (UniProt P43405). The following applies: cited from earlier work.
A further experiment has as its target VAV1 (Homo sapiens) (UniProt P15498). The following applies: cited from earlier work.
In the next experiment the target is PIK3R3-N (Homo sapiens) (UniProt Q92569). The following applies: cited from earlier work.
The target of a further experiment is SHB (Homo sapiens) (UniProt Q15464). The following applies: cited from earlier work.
Another experiment deals with SHC3 (Homo sapiens) (UniProt Q92529). The following applies: cited from earlier work.
In another experiment the target is GRB7 (Homo sapiens) (UniProt Q14451). The following applies: cited from earlier work.
The target of another experiment is ITK (Homo sapiens) (UniProt Q08881). The following applies: cited from earlier work.
Another experiment deals with SHC4 (Homo sapiens) (UniProt Q6S5L8). The following applies: cited from earlier work.
Another experiment addresses PLCG2-N (Homo sapiens) (UniProt P16885). The following applies: cited from earlier work.
The next experiment has as its target SH2D1A (Homo sapiens) (UniProt O60880). The following applies: cited from earlier work.
Another experiment addresses SHD (Homo sapiens) (UniProt Q96IW2). The following applies: cited from earlier work.
Experiment [6] deals with SRC (Homo sapiens) (UniProt P12931). The following applies: cited from earlier work. The source holds these as a separate data set.
In another experiment the target is SHC1-PTB (Homo sapiens) (UniProt P29353). The following applies: cited from earlier work.
Another experiment has as its target BMX (Homo sapiens) (UniProt P51813). The following applies: cited from earlier work.
Another experiment concerns the target SHC2-PTB (Homo sapiens) (UniProt P98077). The following applies: cited from earlier work.
The target of another experiment is DAPP1 (Homo sapiens) (UniProt Q9UN19). The following applies: cited from earlier work.

“And” between values parts separate entries of the source, which are not always exact repeats. Equal entries are not always repeated. Where two headings read alike, the source gives them in different places.

ITK SH2 domain (human), sequence (Q08881 239-338): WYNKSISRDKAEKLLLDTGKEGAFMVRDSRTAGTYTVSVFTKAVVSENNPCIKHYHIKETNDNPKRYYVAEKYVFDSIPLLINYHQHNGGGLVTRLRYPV
GRAP2 SH2 domain (human), sequence (O75791 58-149): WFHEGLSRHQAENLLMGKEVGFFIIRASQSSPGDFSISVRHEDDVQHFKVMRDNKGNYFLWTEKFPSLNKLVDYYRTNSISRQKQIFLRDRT
VAV2 (Homo sapiens), sequence (P52735 668-772): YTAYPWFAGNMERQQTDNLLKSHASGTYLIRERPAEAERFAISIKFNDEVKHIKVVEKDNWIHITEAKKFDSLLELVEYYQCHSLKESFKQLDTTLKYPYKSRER
SHB (Homo sapiens), sequence (Q15464 405-509): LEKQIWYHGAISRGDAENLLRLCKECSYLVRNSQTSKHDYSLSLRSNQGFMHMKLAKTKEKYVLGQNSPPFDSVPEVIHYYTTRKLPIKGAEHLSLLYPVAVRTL
SHC1-PTB (Homo sapiens), sequence (P29353 483-583): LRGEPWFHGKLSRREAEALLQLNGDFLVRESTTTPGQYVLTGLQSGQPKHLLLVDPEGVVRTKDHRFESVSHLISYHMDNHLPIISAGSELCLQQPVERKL
BLNK SH2 domain (human), sequence (Q8WV28 346-453): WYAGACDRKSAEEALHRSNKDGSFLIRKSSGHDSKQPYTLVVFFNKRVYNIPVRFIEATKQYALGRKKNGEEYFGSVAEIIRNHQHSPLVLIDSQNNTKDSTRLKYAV
SHD (Homo sapiens), sequence (Q96IW2 235-340): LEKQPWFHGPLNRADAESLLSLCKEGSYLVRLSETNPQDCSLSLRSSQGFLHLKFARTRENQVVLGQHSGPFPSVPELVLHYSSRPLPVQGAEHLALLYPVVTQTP
GRB7 (Homo sapiens), sequence (Q14451 426-532): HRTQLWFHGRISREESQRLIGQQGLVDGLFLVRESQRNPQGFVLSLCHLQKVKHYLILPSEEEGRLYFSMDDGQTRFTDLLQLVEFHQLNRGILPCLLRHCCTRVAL
ITK (Homo sapiens), sequence (Q08881 234-343): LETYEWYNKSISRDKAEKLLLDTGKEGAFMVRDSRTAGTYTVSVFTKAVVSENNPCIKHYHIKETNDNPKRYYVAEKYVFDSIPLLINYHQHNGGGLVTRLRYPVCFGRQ
BMX (Homo sapiens), sequence (P51813 291-397): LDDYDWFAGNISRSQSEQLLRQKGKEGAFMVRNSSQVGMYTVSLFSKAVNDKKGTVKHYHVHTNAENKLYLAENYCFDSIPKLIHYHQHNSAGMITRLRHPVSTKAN
SH2D1A (Homo sapiens), sequence (O60880 1-109): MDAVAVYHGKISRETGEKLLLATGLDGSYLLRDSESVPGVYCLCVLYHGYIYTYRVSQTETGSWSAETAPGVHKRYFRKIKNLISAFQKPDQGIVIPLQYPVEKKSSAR
DAPP1 (Homo sapiens), sequence (Q9UN19 30-134): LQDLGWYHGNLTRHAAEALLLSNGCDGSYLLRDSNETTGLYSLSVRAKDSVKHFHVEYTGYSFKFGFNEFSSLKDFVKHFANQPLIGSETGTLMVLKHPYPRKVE
SHC2-PTB (Homo sapiens), sequence (P98077 482-582): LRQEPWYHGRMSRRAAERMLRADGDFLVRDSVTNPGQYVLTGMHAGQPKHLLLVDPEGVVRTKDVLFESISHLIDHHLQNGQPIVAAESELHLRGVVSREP
SHC4 (Homo sapiens), sequence (Q6S5L8 521-622): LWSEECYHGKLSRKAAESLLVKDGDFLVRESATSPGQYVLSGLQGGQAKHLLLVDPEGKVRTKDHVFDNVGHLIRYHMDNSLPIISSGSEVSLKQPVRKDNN
VAV1 (Homo sapiens), sequence (P15498 666-770): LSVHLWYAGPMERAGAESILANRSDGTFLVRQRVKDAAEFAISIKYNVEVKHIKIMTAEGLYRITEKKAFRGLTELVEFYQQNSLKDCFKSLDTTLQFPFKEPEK
SHC3 (Homo sapiens), sequence (Q92529 494-594): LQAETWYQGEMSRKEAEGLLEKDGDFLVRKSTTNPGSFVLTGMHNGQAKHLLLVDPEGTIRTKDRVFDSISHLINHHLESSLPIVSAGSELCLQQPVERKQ
PLCG2-N (Homo sapiens), sequence (P16885 527-740): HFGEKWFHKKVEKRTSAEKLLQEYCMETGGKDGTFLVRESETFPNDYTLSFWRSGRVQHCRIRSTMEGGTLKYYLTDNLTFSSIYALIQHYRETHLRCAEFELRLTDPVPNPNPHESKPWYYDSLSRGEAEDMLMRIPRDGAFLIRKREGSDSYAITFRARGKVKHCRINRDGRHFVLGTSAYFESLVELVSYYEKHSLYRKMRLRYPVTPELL
SLA (Homo sapiens), sequence (Q13239 79-180): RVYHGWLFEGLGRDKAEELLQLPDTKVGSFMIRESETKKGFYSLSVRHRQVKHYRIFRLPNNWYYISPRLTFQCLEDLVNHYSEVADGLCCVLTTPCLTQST

One may read the Kd as the free concentration of one partner at which half of the binding sites on the other are occupied at equilibrium, for simple one-to-one binding. The low end stands for tighter binding, the high end for weaker binding. As for “ErbB4 pY1262 phosphopeptide, rhodamine-labelled, for protein microarrays”, the Kd was 1.64 µM with BLNK SH2 domain (human); 0.808 µM and 1.36 µM with GRAP2 SH2 domain (human); 0.401 µM and 0.802 µM with ITK SH2 domain (human); 0.318 µM in experiment [1]; 0.403 µM and 2.1 µM with SRC SH2 domain (human); 0.319 µM and 0.593 µM in [2]. Further, the Kd in [3] is 0.164 µM and 0.649 µM; in experiment [4] it was 2.71 µM and 1.63 µM.

Take …pYEEMRAFQ: the apparent Kd (screen) is 2 µM with SLA (Homo sapiens), 0.999 µM with SRC (Homo sapiens) [5] and 2 µM with VAV2 (Homo sapiens).

With …pYLIPQQGFd, the apparent Kd (screen) in the experiment with SYK-C (Homo sapiens) was 0.934 µM; with VAV1 (Homo sapiens), 1.05 µM; in the experiment with PIK3R3-N (Homo sapiens), 0.722 µM; in the experiment with SHB (Homo sapiens), 1.99 µM.

Consider …pYLVPQQGF, for which the apparent Kd (screen) in the experiment with SHC3 (Homo sapiens) is 2 µM.

On to …pYWDQDPPE, for which the apparent Kd (screen) with GRB7 (Homo sapiens) is 0.253 µM; with ITK (Homo sapiens), 0.224 µM; with SHC4 (Homo sapiens), 2 µM; with PLCG2-N (Homo sapiens), 2 µM; in the experiment with SH2D1A (Homo sapiens), 2 µM; with SHD (Homo sapiens) it was 2 µM. Moreover, the apparent Kd (screen) with SRC (Homo sapiens) [6] is 0.196 µM; with SHC1-PTB (Homo sapiens), 0.088 µM; with BMX (Homo sapiens) it was 2 µM; with SHC2-PTB (Homo sapiens), 0.457 µM; with DAPP1 (Homo sapiens) it was 2 µM.
